Test results from publication PMC12164958.

Key:
MBP-tagged UBR7 [1] = experiment: MBP pull-down (blot Anti-His), band intensity; settings: parent: 1.00
MBP-tagged UBR7 [2] = experiment: MBP pull-down, quantified band intensity, bar chart of three replicates; settings: parent: est. 1.0; read off a plot
UBR7-nLuc = experiment: LCI assay (luciferase complementation imaging) in N. benthamiana leaves; settings: Luminescence signals were recorded at 48 hpi; parent: est. 1.0; read off a plot
[3] = molecular target: UBR7 (construct of the Co-IP assays); experiment: Co-IP (IP: Anti-Flag, blot Anti-HA), band intensity; settings: parent: 1.00
[4] = molecular target: UBR7 (construct of the Co-IP assays); experiment: Co-IP (IP: Anti-Flag), quantified band intensity, bar chart of three replicates; settings: parent: est. 1.0; read off a plot

| Substance | ratio to parent (MBP-tagged UBR7 [1]) | ratio to parent (MBP-tagged UBR7 [2]) | ratio to parent (UBR7-nLuc) | ratio to parent [3] | ratio to parent [4] |
| --- | --- | --- | --- | --- | --- |
| His-tagged AL7 S174A | 0.95 | 0.72 | – | – | – |
| His-tagged AL7 S174D | 3.18 | 3.1 | – | – | – |
| AL7-3×Flag S174D | – | – | – | 1.63 | 1.9 |

Continued, values first:

| ratio to parent (MBP-tagged UBR7 [1]) | ratio to parent (MBP-tagged UBR7 [2]) | ratio to parent (UBR7-nLuc) | ratio to parent [3] | ratio to parent [4] | Substance |
| --- | --- | --- | --- | --- | --- |
| – | – | 1.6 | – | – | cLuc-AL7 S174D |
| – | – | 0.98 | – | – | cLuc-AL7 S174A |
| – | – | – | 0.55 | 0.6 | AL7-3×Flag S174A |
